Data on five substances can be found in US20160361443A1, “Ultrasound Molecular Imaging With Targeted Biocompatible Microbubbles” (University of Pittsburgh - Of the Commonwealth System of …, priority 2015, published 2016).

For assay [1], the target named is T1, human E-selectin (Homo sapiens, UniProt P16581).
T1 sequence (P16581 22-610): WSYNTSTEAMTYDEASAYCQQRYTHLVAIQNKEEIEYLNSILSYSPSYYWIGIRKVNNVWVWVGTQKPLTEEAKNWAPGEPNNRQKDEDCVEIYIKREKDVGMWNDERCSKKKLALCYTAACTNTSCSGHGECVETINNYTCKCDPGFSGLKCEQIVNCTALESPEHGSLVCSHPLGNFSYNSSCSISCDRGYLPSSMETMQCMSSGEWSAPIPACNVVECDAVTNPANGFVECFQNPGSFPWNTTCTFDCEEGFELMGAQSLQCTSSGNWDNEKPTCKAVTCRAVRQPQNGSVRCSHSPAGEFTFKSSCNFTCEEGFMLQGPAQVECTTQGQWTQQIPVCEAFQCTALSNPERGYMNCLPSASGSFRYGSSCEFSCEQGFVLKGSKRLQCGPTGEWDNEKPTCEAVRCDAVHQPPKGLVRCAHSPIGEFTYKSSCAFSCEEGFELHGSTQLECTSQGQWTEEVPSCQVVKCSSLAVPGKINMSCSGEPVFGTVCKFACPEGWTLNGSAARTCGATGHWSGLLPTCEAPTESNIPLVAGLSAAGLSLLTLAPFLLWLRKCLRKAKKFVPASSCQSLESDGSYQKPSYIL
The settings on record: cited from earlier work.

Assay [2] has as its target T1, human E-selectin. The settings on record: static and flow-cell assays; cited from earlier work.
For assay [3], the target named is T2, E-selectin (Rattus norvegicus, UniProt P98105).
T2 construct: Immunofluorescent staining in all rats consistently confirmed microvascular E-selectin and ICAM-1 expression in postischemic myocardium; from tissue
T2 sequence (P98105 22-549): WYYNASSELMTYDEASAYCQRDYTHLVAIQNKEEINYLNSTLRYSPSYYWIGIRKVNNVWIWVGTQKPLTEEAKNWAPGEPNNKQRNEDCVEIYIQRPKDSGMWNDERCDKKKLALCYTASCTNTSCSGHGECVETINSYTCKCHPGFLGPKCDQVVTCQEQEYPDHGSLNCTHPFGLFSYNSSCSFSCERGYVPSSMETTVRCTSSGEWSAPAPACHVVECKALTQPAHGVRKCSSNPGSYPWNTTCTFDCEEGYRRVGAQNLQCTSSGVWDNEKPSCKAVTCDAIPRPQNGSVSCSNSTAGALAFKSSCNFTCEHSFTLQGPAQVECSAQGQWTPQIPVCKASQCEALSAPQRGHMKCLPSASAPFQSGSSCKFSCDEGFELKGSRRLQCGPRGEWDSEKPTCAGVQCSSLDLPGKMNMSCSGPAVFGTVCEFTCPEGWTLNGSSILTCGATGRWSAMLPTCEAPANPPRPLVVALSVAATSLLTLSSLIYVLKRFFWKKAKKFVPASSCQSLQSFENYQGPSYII
The experiment in a line: Ultrasound molecular imaging with targeted MB (Mal) in LPS rat inflammation model. The format is in vivo. The settings on record: 2×10^7 MB. On the procedure:
FIG. 26 presents exemplary data comparing myocardial retention of microbubble populations (2×10^7) either with, or without, a targeting ligand in an LPS rat inflammation model. The data were linearized and a two-phase washout model was fitted to obtain the retained MB concentration in the myocardium.
(§1) Wistar Rats were intraperitoneally injected with lipopolysaccharide (LPS) in normal saline (dose: 1 mg/kg) to induce systemic inflammation. Four hours post-injection, rats were anesthetized and intubated.
Each rat received intravenous injection of targeted MB Esel(MAL) and control MB IgG in random order (2×10^7 MB in 200 μL saline followed by a 200 μL saline flush). Baseline contrast ultrasound images were obtained before each microbubble injection and intermittent contrast ultrasound imaging were performed for 20 min to monitor the adhesion dynamics of MB in the myocardium. Acuson Sequoia 512 clinical ultrasound system (Siemens, Mountain View, Calif.) with a 15 L8 linear array transducer was used for imaging in CPS mode at 7 MHz.
Microbubble (MB) signals in the anterior myocardium and in the left ventricular cavity were also analyzed. […] Signal intensity was linearized and a two-phase washout model
was used to calculate the amount of MB retention in the myocardium.

For assay [4], the system named is E-selectin. The experiment in a line: RT-qPCR of heart after LPS injection, E-selectin mRNA. The class given is in vivo, rat. The settings on record: 4 hours post LPS injection. Here is the method:
as §1
(§2) LPS treated and untreated (i.e., baseline) hearts were harvested. RNA extraction and reverse transcriptase real-time quantitative polymerase chain reaction (RT-qPCR) for E-selectin, ICAM and glyceraldehyde 3-phosphate dehydrogenase (GAPDH, a house keeping gene) in the heart were performed. E-selectin and ICAM mRNA expression level were expressed as percent of GAPDH.
In general terms: Real-time PCR tracks product formation cycle by cycle.

Another assay has as its system ICAM. The experiment in a line: RT-qPCR of heart after LPS injection, ICAM mRNA. The class given is in vivo, rat. The settings on record: 4 hours post LPS injection. Here is the method:
as §1, §2

Assay [5] has as its system E-selectin. The experiment in a line: TNF-α induced E-selectin upregulation in HUVEC cells (immunostaining, electrophoresis gel). The class given is cell-based, human. The settings on record: TNFα 20 ng/mL for 4 hr vs without TNFα. From the text: FIG. 24 presents exempary data of TNF-α induced E-selectin upregulation by immunostaining of HUVEC cells.
The target in assay [6] is rat E-selectin on inflamed (IL-1β-activated) rat heart microvascular endothelial cells / inflamed or post-ischemic rat endothelium (rat) (UniProt P98105). The experiment in a line: cell-based or functional assay.
For assay [7] the target is unchanged. The experiment in a line: parallel plate flow system, normal cultured rat ECs; control microbubble.
Assay [8] has the same target. Description: parallel plate flow system, activated cultured rat ECs; control microbubble.
The target is the same in assay [9]. The experiment in a line: parallel plate perfusion chamber, inflamed rat heart microvascular ECs; control microbubble.

Where no end group is shown, it is not given here.

By IC50 is commonly meant the concentration that inhibits the measured activity by half. Consider “H2NDITWDQLWDLMK-COOH (H-DITWDQLWDLMK-OH) [AF10166]”, for which the Kd value entry with human E-selectin [1] (believed, from phage display library screening) is recorded as “low nanomolar range”. For the same substance, the IC50 with human E-selectin [1] is 4.4 nM. For the same substance, the Neutrophil adhesion entry with human E-selectin [2] was “blocks neutrophil adhesion”.
“targeted MB: Polymer microbubble conjugated to E-selectin targeting peptide by thioether bond (maleimide-thiol chemistry) (CDITWDQLWDLMK; not fully specified (residue 1); also: N-terminal Cys thioether to maleimide linker BM(PEG)3 on microbubble shell)”: the “Myocardial MB concentration, more as compared with control IgG MB injection” value with E-selectin [3] (6 minutes post-injection, 4 h post LPS 1 mg/kg) came to 185%. The “Retained MB in the myocardium (Ar term) as compared with control MB injection” value with E-selectin [3] (two-phase washout model fit, 4 h post LPS) worked out at 330%.
lipopolysaccharide [LPS]: the “Esel mRNA expression” value in the assay with E-selectin [4] is listed as 2.28±1.32 % of GAPDH. In the assay on ICAM, the “ICAM mRNA expression” value is on record as 6.09±3.14 % of GAPDH.
Regarding TNFα, the “E-selectin expression (in words)” value in the assay on E-selectin [5] was “significant upregulation”.
For the substance “MBIgG: polymer/albumin double-shell microbubble bearing rat biotinylated immunoglobulin G (non-specific IgG, BD Biosciences) via biotin-streptavidin bridging (antibody)”, the adherent microbubbles per field, intravital microscopy of TNF-α-inflamed rat cremaster microcirculation (control microbubble) in [6] amounted to 1.1 MBs/field. In [6], this substance had a background-subtracted videointensity, postischemic LAD bed (control microbubble) of 1.7 dB. In assay [6], this substance displayed a myocardial videointensity, post-ischemic bed (control microbubble) of 2 dB. Also, the adherent microbubbles per endothelial cell (MB/EC) in assay [7] came to 2 MB/EC; in [8] it was 2 MB/EC; in assay [9] it was 2.3 MB/EC.
